We go through 3 molecules from publication PMC7868338, “Identification of Functional Interactome of Colistin Resistance Protein MCR-1 in Escherichia coli” (Frontiers in Microbiology, 2020).

The target of assay [1] is T1, SspB protein (SPR analyte) (E. coli, UniProt P0AFZ3 1-165).
T1 chain: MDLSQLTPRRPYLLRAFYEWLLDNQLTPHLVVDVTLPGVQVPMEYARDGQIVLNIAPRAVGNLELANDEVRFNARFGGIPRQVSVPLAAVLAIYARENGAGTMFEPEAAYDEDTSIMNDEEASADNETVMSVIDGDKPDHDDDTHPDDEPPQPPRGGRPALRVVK
In words: SPR.

In assay [2] the target is T2, MCR-1 full-length protein (E. coli (strain SHP45), UniProt A0A0R6L508 1-541).
T2 construct: MCR-1, phosphoethanolamine transferase; gene amplified from E. coli strain SHP45; 541 amino acids; also called His6-MCR-1; source: E. coli BL21 (DE3) (pET28a-mcr-1), IPTG-induced; in lysate (1% DDM) for the Co-IP; purified (Ni-NTA) for SPR
T2 sequence: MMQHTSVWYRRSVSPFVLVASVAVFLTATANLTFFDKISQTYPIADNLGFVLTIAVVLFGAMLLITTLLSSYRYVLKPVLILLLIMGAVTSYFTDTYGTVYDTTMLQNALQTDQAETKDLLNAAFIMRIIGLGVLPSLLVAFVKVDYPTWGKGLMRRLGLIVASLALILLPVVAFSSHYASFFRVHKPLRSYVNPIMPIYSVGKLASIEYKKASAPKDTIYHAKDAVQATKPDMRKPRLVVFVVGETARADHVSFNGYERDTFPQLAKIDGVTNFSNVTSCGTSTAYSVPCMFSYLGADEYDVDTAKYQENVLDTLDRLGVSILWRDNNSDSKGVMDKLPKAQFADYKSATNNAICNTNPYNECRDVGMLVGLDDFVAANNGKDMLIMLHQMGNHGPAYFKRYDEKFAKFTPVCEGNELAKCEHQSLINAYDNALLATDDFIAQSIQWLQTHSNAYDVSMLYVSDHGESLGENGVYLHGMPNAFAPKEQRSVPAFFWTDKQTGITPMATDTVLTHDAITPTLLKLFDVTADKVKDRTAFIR
The assay can be described thus: SPR; Reichert 4SPR; MCR-1 or MCR-1-200 in PBS directly immobilised on a Planar Mixed SAM chip; SspB 0.156-5 μM (twofold dilutions) in PBST pH 7.4, 0.05% Tween-20. As to conditions: both partners purified.

Assay [3] deals with T3, MCR-1-200 catalytic domain protein (E. coli (strain SHP45), UniProt A0A0R6L508 201-541).
T3 construct: catalytic domain of MCR-1, 341 amino acids; also called catalytic domain of MCR-1; MCR-1 catalytic protein; source: E. coli BL21 (DE3) (pET28a-mcr-1-200), IPTG-induced; in lysate (1% DDM) for the Co-IP; purified (Ni-NTA) for SPR
T3 sequence: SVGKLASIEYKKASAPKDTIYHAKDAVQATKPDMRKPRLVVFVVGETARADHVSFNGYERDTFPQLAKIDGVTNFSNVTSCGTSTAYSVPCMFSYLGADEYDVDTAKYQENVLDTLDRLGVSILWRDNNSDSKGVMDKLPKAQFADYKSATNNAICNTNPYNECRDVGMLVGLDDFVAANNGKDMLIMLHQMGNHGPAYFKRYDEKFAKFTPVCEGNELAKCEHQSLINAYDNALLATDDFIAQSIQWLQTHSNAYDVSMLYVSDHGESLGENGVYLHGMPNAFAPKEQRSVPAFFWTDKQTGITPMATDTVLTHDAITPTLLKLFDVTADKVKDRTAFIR
Described as above. Conditions: both partners purified.

B1: MCR-1 full-length protein (enzyme)
chain: T2 sequence
On to B1, for which the koff in assay [1] stood at 0.325 s⁻¹.

B2: SspB protein (SPR analyte) (natural protein)
chain: T1 chain
notes: Stringent starvation protein B, E. coli; also called Stringent starvation protein B
For the molecule B2, the Kd in assay [2] was 140 µM; in assay [3] it was 5.13 µM.

B3: MCR-1-200 catalytic domain protein (domain or fragment)
chain: T3 sequence
In the case of B3, in assay [1], the koff is 0.0106 s⁻¹.
